What was measured:
[1] = molecular target: c-Src SH2; assay: SH2 binding enrichment of the phosphorylated peptide, bacterial display (enrichment ratio); higher = better substrate or ligand; peptides without Tyr show the background
[2] = molecular target: Grb2 SH2 (UniProt P62993); assay: as above
[3] = molecular target: SHP2-C SH2; assay: as above
[4] = molecular target: Fyn (UniProt P06241); assay: phosphorylation enrichment, bacterial display (enrichment ratio); higher = better substrate or ligand; peptides without Tyr show the background
[5] = molecular target: MERTK (UniProt Q12866); assay: as above
[6] = molecular target: Jak2 (UniProt O60674); assay: as above
[7] = molecular target: FGFR3 (UniProt P22607); assay: as above
[8] = molecular target: Fes (UniProt P07332); assay: as above
[9] = test system: c-Src; assay: as above
[10] = molecular target: Hck (UniProt P08631); assay: as above
[11] = molecular target: EPHB2 (UniProt P29323); assay: as above
[12] = molecular target: FGFR1 (UniProt P11362); assay: as above
[13] = test system: AncSZ; assay: as above
[14] = test system: c-Abl (mouse); assay: as above
[15] = molecular target: EPHB1 (UniProt P54762); assay: as above
[16] = test system: Fer (mouse); assay: as above
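Throughout, for SH2 binding enrichment of the phosphorylated peptide, bacterial display: peptide library displayed on the E. coli surface as eCPX fusions, selected cells deep-sequenced, score is each peptide's frequency after selection divided by its frequency in the input.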
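Throughout, for phosphorylation enrichment, bacterial display: 11-residue human phosphosite peptides and single-mutation variants displayed on the E. coli surface, counted by deep sequencing, each peptide's frequency after selection divided by its frequency in the unselected input library; frequency after pTyr selection over input frequency; kinase dosed for 20-30% of maximal phosphorylation in three min.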

Chain of FGFR3 (P22607 whole entry, looked up): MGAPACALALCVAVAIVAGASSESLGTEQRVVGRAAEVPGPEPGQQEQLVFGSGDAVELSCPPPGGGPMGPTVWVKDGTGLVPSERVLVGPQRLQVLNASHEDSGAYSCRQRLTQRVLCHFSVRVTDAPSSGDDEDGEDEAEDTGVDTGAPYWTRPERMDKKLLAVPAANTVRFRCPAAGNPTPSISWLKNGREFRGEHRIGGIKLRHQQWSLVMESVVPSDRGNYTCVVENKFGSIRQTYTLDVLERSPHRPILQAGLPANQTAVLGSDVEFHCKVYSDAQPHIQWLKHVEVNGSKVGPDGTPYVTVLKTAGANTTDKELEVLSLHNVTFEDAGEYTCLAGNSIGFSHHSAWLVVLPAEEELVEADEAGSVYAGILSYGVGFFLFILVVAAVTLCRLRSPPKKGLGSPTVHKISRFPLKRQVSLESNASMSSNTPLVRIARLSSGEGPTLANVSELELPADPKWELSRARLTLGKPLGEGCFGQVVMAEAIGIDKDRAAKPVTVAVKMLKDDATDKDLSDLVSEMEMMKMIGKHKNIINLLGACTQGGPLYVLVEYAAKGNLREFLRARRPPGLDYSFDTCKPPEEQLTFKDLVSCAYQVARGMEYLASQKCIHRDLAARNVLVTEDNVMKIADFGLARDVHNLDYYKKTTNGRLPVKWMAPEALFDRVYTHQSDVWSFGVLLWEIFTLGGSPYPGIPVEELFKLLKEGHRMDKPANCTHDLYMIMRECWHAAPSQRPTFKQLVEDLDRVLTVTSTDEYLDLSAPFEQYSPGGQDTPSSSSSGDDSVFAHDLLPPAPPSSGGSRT
Chain of Fyn (P06241 whole entry, looked up): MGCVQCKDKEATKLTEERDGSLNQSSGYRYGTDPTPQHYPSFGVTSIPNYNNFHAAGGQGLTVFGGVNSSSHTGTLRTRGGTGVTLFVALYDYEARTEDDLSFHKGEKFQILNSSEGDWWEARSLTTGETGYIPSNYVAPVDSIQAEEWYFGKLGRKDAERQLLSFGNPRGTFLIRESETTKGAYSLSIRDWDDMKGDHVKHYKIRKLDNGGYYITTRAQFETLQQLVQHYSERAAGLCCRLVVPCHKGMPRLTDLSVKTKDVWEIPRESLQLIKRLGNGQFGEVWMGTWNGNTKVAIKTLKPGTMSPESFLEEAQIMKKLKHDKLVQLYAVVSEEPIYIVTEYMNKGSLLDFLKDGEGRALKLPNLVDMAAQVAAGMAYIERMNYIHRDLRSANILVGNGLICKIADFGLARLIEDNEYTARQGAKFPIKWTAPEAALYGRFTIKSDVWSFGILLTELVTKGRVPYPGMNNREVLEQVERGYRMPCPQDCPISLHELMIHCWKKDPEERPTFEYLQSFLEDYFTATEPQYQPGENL
Chain of Fes (P07332 whole entry, looked up): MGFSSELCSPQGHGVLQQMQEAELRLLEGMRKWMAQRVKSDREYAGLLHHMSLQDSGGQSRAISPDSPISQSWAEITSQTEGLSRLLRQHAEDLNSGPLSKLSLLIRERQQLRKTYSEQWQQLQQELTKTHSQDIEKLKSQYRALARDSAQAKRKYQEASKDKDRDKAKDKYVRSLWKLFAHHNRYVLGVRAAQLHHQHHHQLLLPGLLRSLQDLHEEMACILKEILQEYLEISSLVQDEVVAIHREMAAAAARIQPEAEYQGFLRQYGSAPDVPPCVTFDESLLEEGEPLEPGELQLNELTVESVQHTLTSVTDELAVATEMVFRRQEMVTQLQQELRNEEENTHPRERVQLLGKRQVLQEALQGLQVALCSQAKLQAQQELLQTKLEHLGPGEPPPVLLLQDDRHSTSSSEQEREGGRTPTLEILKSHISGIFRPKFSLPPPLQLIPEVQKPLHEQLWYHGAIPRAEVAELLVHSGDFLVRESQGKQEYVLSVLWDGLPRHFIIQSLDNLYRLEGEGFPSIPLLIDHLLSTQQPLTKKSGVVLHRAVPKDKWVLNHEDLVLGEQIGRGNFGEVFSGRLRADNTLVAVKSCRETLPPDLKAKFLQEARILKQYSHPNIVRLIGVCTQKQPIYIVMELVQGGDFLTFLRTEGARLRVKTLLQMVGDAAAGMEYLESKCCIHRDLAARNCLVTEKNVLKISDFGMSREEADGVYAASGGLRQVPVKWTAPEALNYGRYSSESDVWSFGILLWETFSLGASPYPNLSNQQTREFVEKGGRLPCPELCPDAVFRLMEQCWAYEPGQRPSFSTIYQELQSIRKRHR
Chain of FGFR1 (P11362 whole entry, looked up): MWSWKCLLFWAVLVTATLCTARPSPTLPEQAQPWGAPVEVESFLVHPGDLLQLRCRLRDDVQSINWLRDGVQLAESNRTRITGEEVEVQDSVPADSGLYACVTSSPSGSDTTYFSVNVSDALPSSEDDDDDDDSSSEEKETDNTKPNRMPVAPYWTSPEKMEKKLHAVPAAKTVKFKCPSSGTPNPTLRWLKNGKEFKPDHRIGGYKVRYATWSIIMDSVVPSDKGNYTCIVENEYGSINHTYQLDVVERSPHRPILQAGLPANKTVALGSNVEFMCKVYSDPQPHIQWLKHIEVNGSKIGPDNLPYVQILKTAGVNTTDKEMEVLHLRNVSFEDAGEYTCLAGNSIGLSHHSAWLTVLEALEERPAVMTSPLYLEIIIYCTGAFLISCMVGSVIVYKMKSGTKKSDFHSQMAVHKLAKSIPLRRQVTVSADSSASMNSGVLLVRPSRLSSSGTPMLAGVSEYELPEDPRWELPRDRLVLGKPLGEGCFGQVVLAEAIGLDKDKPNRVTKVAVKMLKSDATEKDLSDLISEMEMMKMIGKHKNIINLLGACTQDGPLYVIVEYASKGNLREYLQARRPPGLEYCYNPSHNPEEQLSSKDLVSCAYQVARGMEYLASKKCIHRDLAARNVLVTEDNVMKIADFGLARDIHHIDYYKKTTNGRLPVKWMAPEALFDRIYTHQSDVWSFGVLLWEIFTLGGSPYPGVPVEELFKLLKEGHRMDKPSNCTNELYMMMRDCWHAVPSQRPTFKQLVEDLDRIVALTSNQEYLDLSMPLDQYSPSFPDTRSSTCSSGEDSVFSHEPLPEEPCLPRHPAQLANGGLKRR
Chain of Hck (P08631 whole entry, looked up): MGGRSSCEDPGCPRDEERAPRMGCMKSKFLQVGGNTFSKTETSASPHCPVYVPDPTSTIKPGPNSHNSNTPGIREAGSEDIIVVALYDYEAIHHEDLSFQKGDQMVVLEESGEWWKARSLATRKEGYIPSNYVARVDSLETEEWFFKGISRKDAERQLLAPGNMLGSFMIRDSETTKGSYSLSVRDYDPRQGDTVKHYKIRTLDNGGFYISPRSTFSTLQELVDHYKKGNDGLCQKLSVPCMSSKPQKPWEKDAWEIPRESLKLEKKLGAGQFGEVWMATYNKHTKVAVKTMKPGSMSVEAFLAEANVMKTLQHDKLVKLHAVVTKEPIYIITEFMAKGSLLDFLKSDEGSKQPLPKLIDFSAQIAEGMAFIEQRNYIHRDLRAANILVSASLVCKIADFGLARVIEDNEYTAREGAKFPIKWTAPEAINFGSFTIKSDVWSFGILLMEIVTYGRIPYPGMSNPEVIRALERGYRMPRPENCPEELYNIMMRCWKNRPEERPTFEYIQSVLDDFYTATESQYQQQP
Chain of EPHB1 (P54762 whole entry, looked up): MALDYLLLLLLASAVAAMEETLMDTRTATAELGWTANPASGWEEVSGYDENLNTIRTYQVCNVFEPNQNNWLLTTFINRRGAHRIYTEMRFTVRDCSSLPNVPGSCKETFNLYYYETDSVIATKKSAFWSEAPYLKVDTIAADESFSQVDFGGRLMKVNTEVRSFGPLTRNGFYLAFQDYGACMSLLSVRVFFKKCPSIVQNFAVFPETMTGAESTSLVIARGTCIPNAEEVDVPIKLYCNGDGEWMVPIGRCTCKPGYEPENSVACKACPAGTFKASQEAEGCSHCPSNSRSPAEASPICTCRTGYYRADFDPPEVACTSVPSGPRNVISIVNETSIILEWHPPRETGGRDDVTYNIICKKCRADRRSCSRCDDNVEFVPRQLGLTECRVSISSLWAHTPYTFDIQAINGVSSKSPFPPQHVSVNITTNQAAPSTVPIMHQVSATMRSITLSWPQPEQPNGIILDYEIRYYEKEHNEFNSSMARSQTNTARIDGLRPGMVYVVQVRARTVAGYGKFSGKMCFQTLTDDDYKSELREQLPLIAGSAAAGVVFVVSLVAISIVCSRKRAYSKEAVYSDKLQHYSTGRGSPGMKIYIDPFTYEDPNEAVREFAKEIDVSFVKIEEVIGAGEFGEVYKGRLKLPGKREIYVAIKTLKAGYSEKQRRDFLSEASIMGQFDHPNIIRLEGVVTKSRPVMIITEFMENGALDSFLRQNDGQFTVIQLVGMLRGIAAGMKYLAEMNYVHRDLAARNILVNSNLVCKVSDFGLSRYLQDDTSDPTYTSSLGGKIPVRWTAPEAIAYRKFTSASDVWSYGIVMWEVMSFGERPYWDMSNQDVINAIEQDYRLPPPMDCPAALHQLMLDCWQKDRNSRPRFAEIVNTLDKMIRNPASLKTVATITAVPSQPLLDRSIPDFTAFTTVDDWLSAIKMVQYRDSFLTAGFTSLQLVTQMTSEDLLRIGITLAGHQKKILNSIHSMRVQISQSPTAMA

Row | SH2 binding enrichment [1] | SH2 binding enrichment [2] | SH2 binding enrichment [3] | Sequence | phosphorylation enrichment [4] | phosphorylation enrichment [5] | phosphorylation enrichment [6] | phosphorylation enrichment [7] | phosphorylation enrichment [8] | phosphorylation enrichment [9] | phosphorylation enrichment [10] | phosphorylation enrichment [11] | phosphorylation enrichment [12] | phosphorylation enrichment [13] | phosphorylation enrichment [14] | phosphorylation enrichment [15] | phosphorylation enrichment [16]
1 | 1.12 | 0.823 | 0.894 | YAKSVYWENTL [NUP107_Y296] | 0.61 | 0.526 | 0.821 | 0.619 | 0.967 | 0.871 | 0.674 | 0.485 | 0.49 | 1.02 | 0.728 | 0.584 | 0.492
2 | 0.422 | 0.796 | 0.629 | VATRWYRSPEP [CDKL5_Y177_L182P] | 0.525 | 0.421 | 0.565 | 0.523 | 0.719 | 0.394 | 0.431 | 0.537 | 0.482 | 0.638 | 0.397 | 0.55 | 0.379
3 | 7.24 | 0.882 | 0.595 | FRGFSYDDIPD [TMEM230_Y112_YF] | 0.438 | 0.565 | 1.39 | 0.737 | 1.44 | 0.485 | 0.609 | 0.71 | 0.474 | 1.35 | 0.895 | 0.739 | 0.405
4 | 0.55 | 0.826 | 0.565 | SGSWSYNTSTE [SELE_Y24_A21S] | 0.5 | 0.503 | 0.968 | 0.768 | 1.07 | 0.503 | 0.536 | 0.586 | 0.527 | 0.925 | 0.787 | 0.56 | 0.393
5 | 1.26 | 0.824 | 0.65 | SLEKSYELPDG [ACTA1_Y242] | 0.49 | 0.467 | 0.913 | 0.707 | 1.15 | 0.479 | 0.534 | 0.531 | 0.544 | 1.06 | 0.712 | 0.614 | 0.538
6 | 0.469 | 0.889 | 0.592 | SLEKSYKLPDG [ACTA1_Y242_E243K] | 0.397 | 0.462 | 0.649 | 0.455 | 0.757 | 0.41 | 0.393 | 0.434 | 0.467 | 0.658 | 0.574 | 0.408 | 0.429
7 | 0.508 | 0.915 | 0.476 | RPQDGYRIVQH [PTPRT_Y1329] | 0.554 | 0.493 | 0.534 | 0.625 | 0.708 | 0.649 | 0.586 | 0.565 | 0.557 | 0.797 | 0.74 | 0.406 | 0.591
8 | 0.567 | 0.871 | 0.845 | NKEAIYSGYIR [SMCHD1_Y283] | 11.3 | 9.45 | 0.571 | 0.526 | 0.687 | 7.96 | 10.4 | 11.2 | 0.565 | 0.724 | 24.3 | 5.4 | 3.43
9 | 0.428 | 0.832 | 0.729 | ENFDDYMKDVG [FABP4_Y20_E23D] | 0.564 | 0.52 | 1.24 | 0.764 | 1.12 | 0.43 | 0.554 | 0.663 | 0.546 | 1.17 | 1.13 | 0.635 | 0.443
10 | 0.47 | 0.592 | 0.486 | PRRRFYVVACD [RNASE3_Y134_G130R] | 0.759 | 0.73 | 0.733 | 0.656 | 0.667 | 0.545 | 0.705 | 0.701 | 0.614 | 0.597 | 0.715 | 0.543 | 0.433
11 | 0.482 | 0.838 | 0.829 | SIIKDSFHRGA [GATM_Y203_Y203S] | 0.369 | 0.362 | 0.404 | 0.462 | 0.414 | 0.387 | 0.394 | 0.334 | 0.379 | 0.423 | 0.497 | 0.342 | 0.403

Second part, the sequence before the results:

Row | Sequence | SH2 binding enrichment [1] | SH2 binding enrichment [2] | SH2 binding enrichment [3] | phosphorylation enrichment [4] | phosphorylation enrichment [5] | phosphorylation enrichment [6] | phosphorylation enrichment [7] | phosphorylation enrichment [8] | phosphorylation enrichment [9] | phosphorylation enrichment [10] | phosphorylation enrichment [11] | phosphorylation enrichment [12] | phosphorylation enrichment [13] | phosphorylation enrichment [14] | phosphorylation enrichment [15] | phosphorylation enrichment [16]
12 | YLEKYYKFGCR [NNMT_Y25_S29C] | 0.681 | 0.938 | 0.94 | 0.549 | 0.649 | 1.34 | 0.928 | 1.55 | 0.739 | 0.564 | 0.588 | 0.569 | 1.18 | 1.02 | 0.775 | 0.55
13 | MCITQYERESQ [PRNP_Y218] | 0.591 | 0.935 | 0.632 | 0.496 | 0.485 | 0.654 | 0.557 | 0.895 | 0.394 | 0.447 | 0.495 | 0.491 | 0.837 | 0.648 | 0.419 | 0.453
14 | KGPNVYKKTVN [REV3L_Y1156] | 0.529 | 0.633 | 0.606 | 0.313 | 0.362 | 0.5 | 0.391 | 0.581 | 0.546 | 0.414 | 0.31 | 0.448 | 0.456 | 0.492 | 0.307 | 0.429
15 | HNQDGYSFLSR [LDLR_Y845_P848L_YF] | 6.05 | 0.784 | 2.83 | 0.654 | 0.914 | 1.25 | 0.657 | 0.795 | 0.435 | 0.841 | 1 | 0.765 | 0.867 | 0.635 | 0.837 | 0.427
16 | DEDEEYEYMNR [ERBB3_Y1197] | 0.634 | 1.02 | 0.926 | 0.523 | 0.487 | 1.19 | 0.62 | 1.23 | 0.54 | 0.567 | 0.712 | 0.511 | 1.38 | 0.668 | 0.587 | 0.556
17 | RDSQLYAVDFE [MRPS34_Y34_YF] | 0.701 | 1.37 | 1.07 | 0.993 | 1.9 | 1.09 | 0.788 | 1.58 | 1.35 | 0.908 | 0.869 | 0.53 | 1.49 | 0.876 | 1.04 | 0.728
18 | TVLEPYTDPFF [ZC3H18_Y367_A368T_YF] | 1.98 | 0.791 | 0.649 | 0.535 | 0.519 | 1.09 | 0.909 | 1.09 | 0.514 | 0.501 | 0.429 | 1.29 | 1.25 | 0.685 | 0.463 | 0.438
19 | HAVFIYDICHV [TWNK_Y508_V507I_YF] | 0.619 | 1.34 | 0.793 | 3.92 | 3.24 | 1.26 | 0.956 | 1.56 | 2.49 | 2.59 | 3.98 | 0.54 | 1.19 | 1.89 | 3.04 | 4.14
20 | LMQAEYWHDPI [PPT1_Y185_V181M] | 0.983 | 0.999 | 0.68 | 0.835 | 0.557 | 1.16 | 4.42 | 1.56 | 0.54 | 0.769 | 0.863 | 6.07 | 1.36 | 0.724 | 1.2 | 0.773
21 | EYLQKYKGFKI [SYNE1_Y6953] | 0.551 | 0.854 | 0.624 | 0.275 | 0.438 | 0.707 | 0.377 | 0.868 | 0.323 | 0.345 | 0.332 | 0.256 | 0.733 | 0.569 | 0.427 | 0.407
22 | VFPIDYYFPPQ [AR_Y552_L548F] | 1.04 | 1.24 | 1.08 | 0.816 | 2.24 | 6.13 | 12.9 | 0.914 | 1.34 | 0.851 | 3.65 | 13.8 | 5.64 | 0.922 | 3.22 | 0.536
23 | EACRSYSHVVL [CHST6_Y168] | 2.24 | 0.958 | 2.2 | 0.611 | 0.463 | 0.602 | 0.701 | 0.711 | 0.538 | 0.548 | 0.498 | 0.533 | 0.808 | 0.881 | 0.454 | 0.824
24 | YQCKHYACIRQ [TIMP3_Y182_S179C] | 2.39 | 1.74 | 4.01 | 0.347 | 0.46 | 0.55 | 0.455 | 0.662 | 0.362 | 0.275 | 0.363 | 0.336 | 0.601 | 0.514 | 0.371 | 0.399
25 | RARIRYAQEHD [NSD1_Y1987] | 0.572 | 0.663 | 0.536 | 0.757 | 0.627 | 0.691 | 0.625 | 0.885 | 0.636 | 0.85 | 1.19 | 0.689 | 1.12 | 0.706 | 0.727 | 0.737
26 | AKIDGYITSYR | 0.501 | 0.815 | 0.739 | 0.433 | 0.415 | 0.558 | 0.556 | 0.763 | 0.417 | 0.407 | 0.51 | 0.469 | 0.809 | 0.565 | 0.52 | 0.338
27 | KVPELYEIHKE [BCR_Y554] | 0.701 | 0.996 | 0.751 | 0.631 | 0.619 | 0.766 | 0.817 | 1.08 | 0.603 | 0.853 | 0.868 | 0.593 | 1.03 | 0.714 | 0.93 | 0.976
28 | VKYGAYINDFK [GLB1_Y488_N484K] | 2.57 | 7.46 | 1.06 | 0.568 | 0.381 | 0.573 | 0.463 | 0.791 | 0.566 | 0.379 | 0.46 | 0.363 | 0.691 | 0.605 | 0.455 | 0.353
29 | ALKWGYTVKGI [OAT_Y158_R154L] | 0.625 | 0.872 | 0.845 | 0.519 | 0.304 | 1.01 | 0.72 | 1.24 | 0.31 | 0.341 | 0.547 | 0.426 | 1.13 | 0.659 | 0.447 | 0.445
30 | LEIETYPRLLD [KRT12_Y429_R430P] | 0.498 | 0.826 | 0.65 | 0.599 | 0.461 | 1.85 | 1.06 | 1.87 | 0.772 | 0.41 | 0.953 | 0.787 | 1.3 | 1.1 | 0.802 | 0.646
31 | ALLVFYAATIA [SLC20A2_Y187_P184L] | 0.633 | 0.803 | 0.969 | 0.44 | 0.429 | 1.04 | 0.672 | 1.13 | 0.455 | 0.513 | 0.565 | 0.445 | 0.934 | 0.871 | 0.648 | 0.501
32 | LFMGDYVDRGF [PPP2CA_Y86_YF] | 0.54 | 1.04 | 0.577 | 0.814 | 0.396 | 0.696 | 0.943 | 0.963 | 0.61 | 0.673 | 1.19 | 0.822 | 0.95 | 0.616 | 0.961 | 0.546
33 | LLLLFYVVRYC [MPZ_Y177] | 1.33 | 1.77 | 1.53 | 0.463 | 0.54 | 0.735 | 0.436 | 0.738 | 0.492 | 0.438 | 0.345 | 0.415 | 0.722 | 0.574 | 0.359 | 0.468

— the supplement of paper PMC10065799, “High-throughput profiling of sequence recognition by tyrosine kinases and SH2 domains using bacterial peptide display” (eLife, 2023)
